In the DeepSol protein solubility set:

test: soluble on expression in E. coli; label from the status in PepcDB or PDB records

**Q.** Which “soluble on expression in E. coli” value does the source give for “MGSDKIHHHHHHMNYTQGSLFENIENIPLAGRMRPRNLSDYIGQEHILEKGKALRNMLEKDSITSMILWGPPGVGKTTLAMIIASTTKCNFVEFSAATSGIKEIKDIMIKAEKDRLFGIRTLLFIDEIHRFNKSQQDTFLPHVEKGDIILIGATTENPSFEVNSALLSRCRVFVLKPLSNNDIVKLLKNALTDTRGFKNKNIQISEDLLTLIAVYSNGDARTALNVLEMAVLSSKLEHGVVTINKGILEDCMQNKALIYDKNGEEHYNLISALHKSMRNSDVDAAIYWLARMLEGGEDPLYIARRLIRFSSEDIGVADTNALNVTVNVYNSCHYIGMPECSVNLTEAVVYLSLAPKSNSIYMAYEKAKKDAKETLASGVPLHLRNAPTKLMSDLGYSKGYKYAHDFDNKVVDMQCLPDNLKDEKYYFPTTEGREKLFKERLHYIKKKKHTVNKSI” here?
**A.** Its value is “not soluble”.

**Q.** Which “soluble on expression in E. coli” value does the source give for “MTIPFDHWPEWPQHSDRTRRKIEEVFQSNRWAISGYWTGEESMERKFAKAFADFNGVPYCVPTTSGSTALMLALEALGIGEGDEVIVPSLTWIATATAVLNVNALPVFVDVEADTYCIDPQLIKSAITDKTKAIIPVHLFGSMANMDEINEIAQEHNLFVIEDCAQSHGSVWNNQRAGTIGDIGAFSCQQGKVLTAGEGGIIVTKNPRLFELIQQLRADSRVYCDDSSELMHGDMQLVKKGDIQGSNYCLSEFQSAILLDQLQELDDKNAIREKNAMFLNDALSKIDGIKVMKRPPQVSRQTYYGYVFRFDPVKFGGLNADQFCEILREKLNMGTFYLHPPYLPVHKNPLFCPWTKNRYLKSVRKTEAYWRGLHYPVSERASGQSIVIHHAILLAEPSHLSLLVDAVAELARKFCVTH” here?
**A.** The value was “soluble”.

**Q.** With “MNIGVIGTGNMGTILIEAFLDSGAVKADQLVITNRTLAKAFAIQRAHPGIAVVADAAEVIKQSSLVFLCVKPLDIHPLLQQLAPHWTREHCLVSITSPISVEQLEAAVPCQIVRAIPSIANRALSGSILVTFGSRCSTTCRQTIDDLLRRIASPVYIDEAITRVASDISSCGPAFFSYLLQRFIDAAAAKTAITKEQATMLATDMIIGLGELLKRNLYTLPTLQEKVCVKGGITGEGIAVLEQRMNGVFEEVLAKTHEKFKEDVEKVKQQFS” as the sequence, how does the “soluble on expression in E. coli” value read?
**A.** The value was “not soluble”.

**Q.** Which “soluble on expression in E. coli” value does the source give for “MAQGFKITYTDQACLLDIQDPQNKESQSFHYALVPRGVEAENIPADYTVIETPIRSVICMTSLQLSNFIKLEELDAVVGITSTRHLFNKKINDRLKDGSIHKIGIEGNFDNEVIMSVNPDLILISPFKRGGYDALKEVGIPLMPHLGYKEMTPLGQAEWIKFVGLLLGREDKANKQFAAIKKRYNELKELTGLEHHHHHH” here?
**A.** Its value is “not soluble”.

**Q.** With “MATLLRSLALFKRNKDKPPITSGSGGAIRGIKHIIIVPIPGDSSITTRSRLLDRLVRLIGNPDVSGPKLTGALIGILSLFVESPGQLIQRITDDPDVSIRLLEVVQSDQSQSGLTFASRGTNMEDEADQYFSHDDPISSDQSRFGWFENKEISDIEVQDPEGFNMILGTILAQIWVLLAKAVTAPDTAADSELRRWIKYTQQRRVVGEFRLERKWLDVVRNRIAEDLSLRRFMVALILDIKRTPGNKPRIAEMICDIDTYIVEAGLASFILTIKFGIETMYPALGLHEFAGELSTLESLMNLYQQMGETAPYMVILENSIQNKFSAGSYPLLWSYAMGVGVELENSMGGLNFGRSYFDPAYFRLGQEMVRRSAGKVSSTLASELGITAEDARLVSEIAMHTTEDKISRAVGPRQAQVSFLHGDQSENELPRLGGKEDRRVKQSRGEARESYRETGPSRASDARAAHLPTGTPLDIDTASESSQDPQDSRRSADALLRLQAMAGISEEQGSDTDTPIVYNDRNLLD” as the sequence, how does the “soluble on expression in E. coli” value read?
**A.** The value was “not soluble”.

**Q.** With “MGSDKIHHHHHHMNSKLSLSTKLSSSGKTQLAEYFATPPFKVITLPSYDDAWANGLNAMQMSSSPGVLAGDLLEIDISLAKLTALSLNTQAFTRVQAMNEGDSAMQTTHILLAENSRLFYLPHPLVLHRDSVFKQQTQIEMGEQSELIYGEIVAIGRVLNDERFAFRQFSSHLKIYALQNDGKKRPLVSDCIQWLPSKMNLTALSQMENYSHQGSLTYLNLAKNNAEIKQQVQALQQQSTEEKDLLIGISQLNEYGLMVRVLGCRAEANSEII” as the sequence, how does the “soluble on expression in E. coli” value read?
**A.** The value was “not soluble”.

**Q.** For “MSLLKKIERAQQLLKKEAAVFRCPTCHEPMHLEGVGLICQQRHQFDLSKKGTLYFLNHGVQTEYNKKMFTSRGKMIQSGMYAPVLNKIMHYLPQNKTVVDVGCGEGSFLAELSQAGLSGLKIGFDLSKEGIYLASNQPIDAFWCVADLTNLPFANEGLDTILNIFSPSHYQEFRRVLKADGTVIKIIPEENYLKELRAAFYPNDEKKQSYSNQKVVQRFAEELAVEVDERITYCFDIPEERRLDLLEMSPLEWQVSQEVKAELQQRPLEKITIDVRLLVGRKREGHHHHHH”, which “soluble on expression in E. coli” value is on record?
**A.** Its value is “soluble”.
